From paper PMC9073949 (Crystal Growth & Design, 2022)
Several values for one entry are separate records, joined by “and”; a condition that tells them apart may be missing. Equal entries are not always repeated. Where two headings read alike, the source gives them in different places.

Experiments:
[1] = Dynamic light scattering: diffusion coefficient and polydispersity of insulin; type: physicochemical; settings: DLS
Protocol: The solutions were prepared identically to the crystallization solutions which have been described previously. The solutions were filtered with a 0.22 μm pore size filter into a disposal cuvette (polystyrene) which then was loaded into a Zetasizer μV (Malvern, UK).

[2] = Insulin crystallization kinetics (desupersaturation, induction time, crystal yield); type: physicochemical
Protocol: (§1) Precise temperature control was achieved by using incubators held at a constant temperature. Citric acid buffer (0.1 M) was prepared at different pH levels by varying the ratio between citric acid and tri-sodium citrate. The pH was determined using a Jenway 4330 pH and conductivity meter (Jenway, UK) with an instrument resolution of around ±0.02 pH units. Zinc sulfate (ZnSO4), zinc chloride (ZnCl2), or zinc acetate (ZnAc) were dissolved in citric acid buffer as a zinc salt stock solution. […] Each experimental condition was repeated multiple times, and the error bars represent the deviation between these repetitions. The desupersaturation (crystallization occurs and the solution concentration decreases) was monitored by measuring the UV–vis absorption at a wavelength of 280 nm with a NanoDrop One^c microvolume UV–vis spectrophotometer (Thermo Fischer Scientific, USA). A sample as small as 10–20 μL was withdrawn from the crystallizer (Eppendorf tube) and was centrifuged (6000 rpm, 10–20 min). […] An extinction coefficient of 1.04 mL·mg^–1·cm^–1 was utilized.[32] Multiple dilutions for every sample were made to minimize dilution errors. The crystal slurry which remained in the centrifuged sample was observed underneath an optical microscope (CX-41, Olympus, Japan) to confirm that the decrease in concentration is because of crystallization and not due to other phenomena, such as amorphous precipitation.
(§2) This lag time is commonly termed as induction time.[33] We found the induction time graphically by finding the intersection between the tangents of the point of inflection (tangent of the biggest gradient after the solution concentration dropped substantially) and the initial concentration (which stays constant until the solution concentration drops substantially). A graphical visualization and a detailed definition and justification of induction time can be found in the Supporting Information.
The crystal yield was calculated to evaluate the performance of crystallization. […] The yield can be either expressed in terms of concentration or supersaturation ratio, which is St = ct/c* for an ideal solution with […] at time zero. [drawing 2] 2

[3] = Static light scattering (Debye plot): second osmotic virial coefficient B22 and derived activity coefficient; type: physicochemical; settings: for B22 (second virial coefficient): SLS Debye plot, ≤ 3 mg·mL^–1, 24.0 °C
Description: The procedure was identical to the DLS experiments, but instead of disposable cuvettes, a quartz cuvette was utilized. After each run, the quartz cuvette was carefully washed with deionized water, ethanol, and IPA followed by drying to remove any impurities and dust before further usage for the next sample. A solvent refractive index of 1.3304 and a refractive index increment of Δn/Δc = 0.183 were utilized.[34] The second virial coefficient was obtained by using Debye plots at low protein concentration (≤ 3 mg·mL^–1).

[4] = for solubility: equilibrium with crystals, UV 280 nm
Protocol: as §1, §2
To ensure that the true solubility concentration was measured, the samples were gently mixed frequently with pipettes once the crystallization experiment had finished. […] Once the concentration had stabilized, that is, no significant change over multiple days, this concentration was taken as solubility.

[5] = pH 6.0, St=0 = 10.0, ZnSO4, 24.0 °C
[6] = pH 6.0, initial insulin 3 mg·mL^–1, ZnSO4 […], 24.0 °C

With Human insulin the diffusion coefficient ([1]; pH 6.0, lower end of insulin concentrations probed, 24.0 °C) was 0.99 × 10^–6 cm^2·s^–1, the diffusion coefficient ([1]; pH 6.0, upper end of insulin concentrations probed, 24.0 °C) was 0.86 × 10^–6 cm^2·s^–1 and the diffusion coefficient ([1]; pH 6.7, Ac^2– anion, cins = 3 mg·mL^–1, 24.0 °C) was 0.87 ± 0.1·10^–3 10^–6 cm^2·s^–1. For the same substance, the diffusion coefficient ([1]; pH 6.7, Cl^– anion, cins = 3 mg·mL^–1, 24.0 °C) was 0.87 ± 0.5·10^–3 10^–6 cm^2·s^–1, the “desupersaturation rate after a yield of 85% was achieved” value ([2]; St=0 = 10.0, pH 6.0) was 0.03 h^–1 and the “desupersaturation rate after a yield of 85% was achieved” value ([2]; St=0 = 10.0, pH 6.2) was 0.01 h^–1. For the same substance, the “desupersaturation rate after a yield of 85% was achieved” value ([2]; St=0 = 10.0, pH 6.5) was 0.07 h^–1, the “desupersaturation rate after a yield of 85% was achieved” value ([2]; St=0 = 10.0, pH 6.7) was 0.02 h^–1 and the “t50% (time required to achieve a yield of 50%)” value ([2]; pH 6.0, St=0 = 5.6) was 128.0 h. For the same substance, the induction time ([2]; pH 6.0, St=0 = 5.6, ZnSO4, 24.0 °C) was 81.0 h, the “crystallization rate ΔS/Δt” value [2, 5] was 0.18 h^–1 and the induction time [2, 5] was 26.5 h. The “time after which the concentration drops” value [2, 6] was 4.0 h, the “time to reach quasi-equilibrium concentration” value [2, 6] was “roughly 20.0 h” and the “reduction in induction time” value ([2]; pH 6.0, initial supersaturation ratio increased from 5.6 to 10.0) was 67%. For the same substance, the “decrease in induction time” value ([2]; pH 6.0 to pH 6.7 at St=0 = 7.4) was “roughly 81%”, the “decrease in induction time” value ([2]; pH 6.0 to pH 6.7 at St=0 = 10.0) was about 88% and the “reduction in induction time” value ([2]; pH 6.5, initial supersaturation ratio increased from 5.6 to 10.0) was 77%. For the same substance, the “crystallization rate ΔS/Δt” value ([2]; pH 6.7, St=0 = 5.7, 12.0 h to 41.0 h, ZnSO4, 24.0 °C) was 0.13 h^–1, the “crystallization rate ΔS/Δt” value ([2]; pH 6.7, St=0 = 10.0, 1.3 h to 26.0 h, ZnSO4, 24.0 °C) was 0.32 h^–1 and the “time to reach quasi-equilibrium concentration” value ([2]; pH 6.7, initial insulin 3 mg·mL^–1, ZnSO4 […], 24.0 °C) was about 80.0 h. For the same substance, the “B22 (second virial coefficient)” value ([3]; pH 6.0) was “–4.23 × 10^–4 mL·mol·g^–2”, the “B22 (second virial coefficient)” value ([3]; pH 6.2) was “–2.47 × 10^–4 mL·mol·g^–2” and the “B22 (second virial coefficient)” value ([3]; pH 6.5) was “–4.18 × 10^–4 mL·mol·g^–2”. The “B22 (second virial coefficient)” value ([3]; pH 6.7) was “–4.0 × 10^–4 mL·mol·g^–2”, the “γ (activity coefficient)” value ([3]; pH 6.7, calculated from B22 with eq 4, 24.0 °C) was 0.96 and the solubility ([4]; pH 6.0, ZnSO4, 73 mM citric buffer, 7 mM HEPES, 24.0 °C) was 0.14 mg·mL^–1. For the same substance, the increase in solubility ([4]; pH 6.0 to pH 6.7, ZnSO4, 24.0 °C) was 5 fold, the solubility ([4]; pH 6.5, ZnSO4, 73 mM citric buffer, 7 mM HEPES, 24.0 °C) was 0.41 mg·mL^–1 and the increase in solubility ([4]; pH 6.5 to pH 6.7 (0.2 pH units), ZnSO4, 24.0 °C) was “roughly 70%”. The “insulin equilibrium concentration (solubility c*)” value ([4]; pH 6.7, ZnSO4 (SO4^2– anion), thermodynamic, equilibrium with crystals after crystallization, 73 mM citric buffer, 7 mM HEPES, 24.0 °C, monitored up to 4 weeks, UV 280 nm of centrifuged supernatant) was 0.70 mg·mL^–1 and 0.70 ± 0.03 mg·mL^–1.
